Test results published in publication PMC3618304.
Each block holds one binder with its values, some of them ahead of it.

Columns and labels:
[1] = target: T1, Sec61-CPLV (S. cerevisiae); assay: two-hybrid; split-ubiquitin, liquid beta-galactosidase assay (ONPG) on cell lysates, 30°C for 180 min, mean of 6 samples
T1 sequence (P32915 whole entry, looked up): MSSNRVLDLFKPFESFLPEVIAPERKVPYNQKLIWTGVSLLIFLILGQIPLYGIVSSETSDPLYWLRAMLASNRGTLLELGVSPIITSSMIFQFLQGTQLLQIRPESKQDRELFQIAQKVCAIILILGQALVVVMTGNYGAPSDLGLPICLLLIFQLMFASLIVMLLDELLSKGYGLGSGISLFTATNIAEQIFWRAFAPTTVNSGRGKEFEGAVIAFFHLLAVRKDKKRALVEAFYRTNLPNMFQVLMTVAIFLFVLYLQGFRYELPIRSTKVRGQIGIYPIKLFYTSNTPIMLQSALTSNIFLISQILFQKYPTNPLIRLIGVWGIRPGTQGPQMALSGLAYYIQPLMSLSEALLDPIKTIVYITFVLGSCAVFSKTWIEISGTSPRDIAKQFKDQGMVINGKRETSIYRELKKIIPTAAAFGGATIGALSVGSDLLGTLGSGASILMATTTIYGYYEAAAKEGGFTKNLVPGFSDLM

[2] = target: T2, Ssh1-CPLV (S. cerevisiae); assay: as above
T2 sequence (P38353 whole entry, looked up): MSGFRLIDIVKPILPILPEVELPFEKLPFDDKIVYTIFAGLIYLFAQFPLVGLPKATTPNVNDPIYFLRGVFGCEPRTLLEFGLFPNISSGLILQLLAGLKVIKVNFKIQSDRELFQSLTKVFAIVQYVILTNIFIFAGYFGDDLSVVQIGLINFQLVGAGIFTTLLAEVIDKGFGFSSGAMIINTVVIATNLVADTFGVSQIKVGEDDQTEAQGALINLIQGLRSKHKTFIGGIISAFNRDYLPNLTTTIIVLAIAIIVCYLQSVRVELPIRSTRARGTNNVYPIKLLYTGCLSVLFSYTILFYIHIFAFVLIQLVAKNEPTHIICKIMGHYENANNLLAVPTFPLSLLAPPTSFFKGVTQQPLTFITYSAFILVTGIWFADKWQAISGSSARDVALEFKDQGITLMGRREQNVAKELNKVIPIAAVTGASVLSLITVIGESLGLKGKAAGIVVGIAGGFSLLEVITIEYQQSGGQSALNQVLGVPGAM

[3] = target: T1, Sec61-CPLV (S. cerevisiae); assay: split reporter (BiFC, NanoBiT); split-ubiquitin, cleavage of PLV from the bait read by quantitative immunoblot of cell lysates with anti-PLV and 125I-Protein A; ratio of cleaved PLV to Arf1p
[4] = target: T2, Ssh1-CPLV (S. cerevisiae); assay: as above

- beta-galactosidase units [1]: 9.8 U
- beta-galactosidase units [2]: 0.43 U
- cleaved PLV relative to Arf1p (arbitrary units) [3]: 18
- cleaved PLV relative to Arf1p (arbitrary units) [4]: 7.1
B1: Nub-Sbh1p (natural protein)
chain: MSSPTPPGGQRTLQKRKQGSSQKVAASAPKKNTNSNNSILKIYSDEATGLRVDPLVVLFLAVGFIFSVVALHVISKVAGKLF

- beta-galactosidase units [1]: 6 U
- beta-galactosidase units [2]: 0.55 U
- cleaved PLV relative to Arf1p (arbitrary units) [3]: 15
- cleaved PLV relative to Arf1p (arbitrary units) [4]: 7.1
B2: Nub-Sss1p (natural protein)
chain: MARASEKGEEKKQSNNQVEKLVEAPVEFVREGTQFLAKCKKPDLKEYTKIVKAVGIGFIAVGIIGYAIKLIHIPIRYVIV

- beta-galactosidase units [1]: 0.28 U
- beta-galactosidase units [2]: 0.45 U
- cleaved PLV relative to Arf1p (arbitrary units) [3]: 9.6
- cleaved PLV relative to Arf1p (arbitrary units) [4]: 7.2
B3: Nub-Sbh2p (natural protein)
chain: MAASVPPGGQRILQKRRQAQSIKEKQAKQTPTSTRQAGYGGSSSSILKLYTDEANGFRVDSLVVLFLSVGFIFSVIALHLLTKFTHII

- cleaved PLV relative to Arf1p (arbitrary units) [3]: 6.6
B4: Nub-Sec62p (natural protein)
chain: MSAVGPGSNAGASVNGGSATAIATLLRNHKELKQRQGLFQAKQTDFFRYKRFVRALHSEEYANKSARQPEIYPTIPSNKIEDQLKSREIFIQLIKAQMVIPVKKLHSQECKEHGLKPSKDFPHLIVSNKAQLEADEYFVWNYNPRTYMDYLIVIGVVSIILALVCYPLWPRSMRRGSYYVSLGAFGILAGFFAVAILRLILYVLSLIVYKDVGGFWIFPNLFEDCGVLESFKPLYGFGEKDTYSYKKKLKRMKKKQAKRESNKKKAINEKAEQN
